According to the supplement of paper PMC9112550, “Optimization of the antimicrobial peptide Bac7 by deep mutational scanning” (BMC Biology, 2022):

Tested on: Escherichia coli TOP10
Experiment: shrunken log2 fold change of peptide-encoding DNA abundance (4.5 h post-induction vs induction); higher = less antimicrobial activity (less host growth inhibition)
Settings: time post-induction: 4.5 h; library: site-saturation at positions 5, 18, 19, 20
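Note: peptides expressed intracellularly from a pBAD plasmid library in pooled LB shake-flask culture, induced with 0.3% L-arabinose, DNA abundance read by NGS, three biological replicates, DESeq2 with apeglm shrinkage.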

RRIRHRPPRLPRPRPRPFMDPRP
shrunken log2 fold change: -0.436

RRIRHRPPRLPRPRPRPFMIPRP
shrunken log2 fold change: -0.341

RRIRHRPPRLPRPRPRPFNLPRP
shrunken log2 fold change: -0.189

RRIRHRPPRLPRPRPRPFPYPRP
shrunken log2 fold change: -0.0859

RRIRHRPPRLPRPRPRPFVMPRP
shrunken log2 fold change: -0.281

RRIRHRPPRLPRPRPRPFWIPRP
shrunken log2 fold change: -0.364

RRIRHRPPRLPRPRPRPFYLPRP
shrunken log2 fold change: -0.915

RRIRHRPPRLPRPRPRPGCGPRP
shrunken log2 fold change: 0.417

RRIRHRPPRLPRPRPRPGCWPRP
shrunken log2 fold change: 0.434

RRIRHRPPRLPRPRPRPGDFPRP
shrunken log2 fold change: -0.147

RRIRHRPPRLPRPRPRPGDQPRP
shrunken log2 fold change: -0.0414

RRIRHRPPRLPRPRPRPGDTPRP
shrunken log2 fold change: -0.0174

RRIRHRPPRLPRPRPRPGFGPRP
shrunken log2 fold change: 0.384

RRIRHRPPRLPRPRPRPGGHPRP
shrunken log2 fold change: 0.125

RRIRHRPPRLPRPRPRPGGIPRP
shrunken log2 fold change: -0.092

RRIRHRPPRLPRPRPRPGHWPRP
shrunken log2 fold change: -0.0325

RRIRHRPPRLPRPRPRPGIAPRP
shrunken log2 fold change: -0.0902

RRIRHRPPRLPRPRPRPGPCPRP
shrunken log2 fold change: -0.254

RRIRHRPPRLPRPRPRPGPPPRP
shrunken log2 fold change: 0.228

RRIRHRPPRLPRPRPRPGQPPRP
shrunken log2 fold change: 0.0384

RRIRHRPPRLPRPRPRPGRNPRP
shrunken log2 fold change: -0.31

RRIRHRPPRLPRPRPRPGRQPRP
shrunken log2 fold change: -0.0906

RRIRHRPPRLPRPRPRPGSTPRP
shrunken log2 fold change: -0.681

RRIRHRPPRLPRPRPRPGTKPRP
shrunken log2 fold change: -0.0254

RRIRHRPPRLPRPRPRPGTWPRP
shrunken log2 fold change: -0.0162

RRIRHRPPRLPRPRPRPGVPPRP
shrunken log2 fold change: 0.191

RRIRHRPPRLPRPRPRPGVRPRP
shrunken log2 fold change: 0.175

RRIRHRPPRLPRPRPRPHAGPRP
shrunken log2 fold change: -0.245

RRIRHRPPRLPRPRPRPHAVPRP
shrunken log2 fold change: -0.0488

RRIRHRPPRLPRPRPRPHCNPRP
shrunken log2 fold change: -0.158

RRIRHRPPRLPRPRPRPHCWPRP
shrunken log2 fold change: -0.0124

RRIRHRPPRLPRPRPRPHDNPRP
shrunken log2 fold change: -0.483

RRIRHRPPRLPRPRPRPHENPRP
shrunken log2 fold change: -0.0891

RRIRHRPPRLPRPRPRPHETPRP
shrunken log2 fold change: 0.0369

RRIRHRPPRLPRPRPRPHGFPRP
shrunken log2 fold change: -0.0127

RRIRHRPPRLPRPRPRPHISPRP
shrunken log2 fold change: -0.226

RRIRHRPPRLPRPRPRPHKRPRP
shrunken log2 fold change: 0.0586

RRIRHRPPRLPRPRPRPHKWPRP
shrunken log2 fold change: -0.0897

RRIRHRPPRLPRPRPRPHMGPRP
shrunken log2 fold change: -0.238

RRIRHRPPRLPRPRPRPHMQPRP
shrunken log2 fold change: -0.616

RRIRHRPPRLPRPRPRPHMVPRP
shrunken log2 fold change: -1.01

RRIRHRPPRLPRPRPRPHMYPRP
shrunken log2 fold change: -0.0666

RRIRHRPPRLPRPRPRPHPRPRP
shrunken log2 fold change: 0.224

RRIRHRPPRLPRPRPRPHPWPRP
shrunken log2 fold change: -0.0988

RRIRHRPPRLPRPRPRPHQWPRP
shrunken log2 fold change: -0.0218

RRIRHRPPRLPRPRPRPHRQPRP
shrunken log2 fold change: -0.0335

RRIRHRPPRLPRPRPRPHSKPRP
shrunken log2 fold change: -0.32

RRIRHRPPRLPRPRPRPHVTPRP
shrunken log2 fold change: -0.373

RRIRHRPPRLPRPRPRPHVYPRP
shrunken log2 fold change: -0.939

RRIRHRPPRLPRPRPRPHWEPRP
shrunken log2 fold change: -0.211

RRIRHRPPRLPRPRPRPHWMPRP
shrunken log2 fold change: -0.785

RRIRHRPPRLPRPRPRPICCPRP
shrunken log2 fold change: 0.055

RRIRHRPPRLPRPRPRPICGPRP
shrunken log2 fold change: 0.00743

RRIRHRPPRLPRPRPRPICLPRP
shrunken log2 fold change: -0.225

RRIRHRPPRLPRPRPRPICNPRP
shrunken log2 fold change: -0.422

RRIRHRPPRLPRPRPRPIDNPRP
shrunken log2 fold change: -0.359

RRIRHRPPRLPRPRPRPIDWPRP
shrunken log2 fold change: 0.0599

RRIRHRPPRLPRPRPRPIFHPRP
shrunken log2 fold change: -0.155

RRIRHRPPRLPRPRPRPIGFPRP
shrunken log2 fold change: -0.0167

RRIRHRPPRLPRPRPRPIGLPRP
shrunken log2 fold change: 0.0101

RRIRHRPPRLPRPRPRPIHAPRP
shrunken log2 fold change: -0.173

RRIRHRPPRLPRPRPRPILHPRP
shrunken log2 fold change: -0.0471

RRIRHRPPRLPRPRPRPILTPRP
shrunken log2 fold change: -0.201

RRIRHRPPRLPRPRPRPIMFPRP
shrunken log2 fold change: -0.439

RRIRHRPPRLPRPRPRPIMYPRP
shrunken log2 fold change: -0.169

RRIRHRPPRLPRPRPRPINKPRP
shrunken log2 fold change: -0.652

RRIRHRPPRLPRPRPRPINNPRP
shrunken log2 fold change: -0.7

RRIRHRPPRLPRPRPRPIPDPRP
shrunken log2 fold change: -0.275

RRIRHRPPRLPRPRPRPIRGPRP
shrunken log2 fold change: 0.0308

RRIRHRPPRLPRPRPRPITAPRP
shrunken log2 fold change: -0.303

RRIRHRPPRLPRPRPRPITCPRP
shrunken log2 fold change: -0.0107

RRIRHRPPRLPRPRPRPITFPRP
shrunken log2 fold change: -0.0514

RRIRHRPPRLPRPRPRPITKPRP
shrunken log2 fold change: -0.107

RRIRHRPPRLPRPRPRPITYPRP
shrunken log2 fold change: -0.184

RRIRHRPPRLPRPRPRPIVWPRP
shrunken log2 fold change: -0.2

RRIRHRPPRLPRPRPRPIWCPRP
shrunken log2 fold change: -0.0133

RRIRHRPPRLPRPRPRPIYGPRP
shrunken log2 fold change: -0.0133

RRIRHRPPRLPRPRPRPKAKPRP
shrunken log2 fold change: 0.00599

RRIRHRPPRLPRPRPRPKDMPRP
shrunken log2 fold change: -0.282

RRIRHRPPRLPRPRPRPKDNPRP
shrunken log2 fold change: -0.201

RRIRHRPPRLPRPRPRPKFGPRP
shrunken log2 fold change: 0.0962

RRIRHRPPRLPRPRPRPKGEPRP
shrunken log2 fold change: -0.0141

RRIRHRPPRLPRPRPRPKGRPRP
shrunken log2 fold change: 0.0526

RRIRHRPPRLPRPRPRPKGYPRP
shrunken log2 fold change: -0.0529

RRIRHRPPRLPRPRPRPKHSPRP
shrunken log2 fold change: -0.347

RRIRHRPPRLPRPRPRPKHVPRP
shrunken log2 fold change: -0.15

RRIRHRPPRLPRPRPRPKIMPRP
shrunken log2 fold change: -0.811

RRIRHRPPRLPRPRPRPKIWPRP
shrunken log2 fold change: -0.0285

RRIRHRPPRLPRPRPRPKKFPRP
shrunken log2 fold change: -0.123

RRIRHRPPRLPRPRPRPKKPPRP
shrunken log2 fold change: -0.125

RRIRHRPPRLPRPRPRPKKRPRP
shrunken log2 fold change: -0.163

RRIRHRPPRLPRPRPRPKLIPRP
shrunken log2 fold change: -0.0143

RRIRHRPPRLPRPRPRPKNQPRP
shrunken log2 fold change: -0.16

RRIRHRPPRLPRPRPRPKPNPRP
shrunken log2 fold change: 0.225

RRIRHRPPRLPRPRPRPKPPPRP
shrunken log2 fold change: 0.55

RRIRHRPPRLPRPRPRPKPTPRP
shrunken log2 fold change: 0.0736

RRIRHRPPRLPRPRPRPKQQPRP
shrunken log2 fold change: -0.0484

RRIRHRPPRLPRPRPRPKRYPRP
shrunken log2 fold change: -0.0093

RRIRHRPPRLPRPRPRPKSVPRP
shrunken log2 fold change: -0.0127

RRIRHRPPRLPRPRPRPKTKPRP
shrunken log2 fold change: 0.0995

RRIRHRPPRLPRPRPRPKTVPRP
shrunken log2 fold change: -0.154

RRIRHRPPRLPRPRPRPKVFPRP
shrunken log2 fold change: -0.00193

RRIRHRPPRLPRPRPRPKVPPRP
shrunken log2 fold change: 0.0497

RRIRHRPPRLPRPRPRPKVRPRP
shrunken log2 fold change: -0.0711

RRIRHRPPRLPRPRPRPKVYPRP
shrunken log2 fold change: 0.0338

RRIRHRPPRLPRPRPRPKWFPRP
shrunken log2 fold change: -0.233

RRIRHRPPRLPRPRPRPKWVPRP
shrunken log2 fold change: -0.302

RRIRHRPPRLPRPRPRPKYHPRP
shrunken log2 fold change: -0.773

RRIRHRPPRLPRPRPRPKYVPRP
shrunken log2 fold change: -0.0624

RRIRHRPPRLPRPRPRPLCCPRP
shrunken log2 fold change: -0.0675

RRIRHRPPRLPRPRPRPLCGPRP
shrunken log2 fold change: -0.302

RRIRHRPPRLPRPRPRPLCIPRP
shrunken log2 fold change: -0.165

RRIRHRPPRLPRPRPRPLDVPRP
shrunken log2 fold change: 0.0138

RRIRHRPPRLPRPRPRPLEHPRP
shrunken log2 fold change: -0.00318

RRIRHRPPRLPRPRPRPLEQPRP
shrunken log2 fold change: -0.0138

RRIRHRPPRLPRPRPRPLERPRP
shrunken log2 fold change: -0.0962

RRIRHRPPRLPRPRPRPLEWPRP
shrunken log2 fold change: -0.0135

RRIRHRPPRLPRPRPRPLGQPRP
shrunken log2 fold change: 0.0866

RRIRHRPPRLPRPRPRPLGWPRP
shrunken log2 fold change: 0.708

RRIRHRPPRLPRPRPRPLKKPRP
shrunken log2 fold change: -0.157

RRIRHRPPRLPRPRPRPLLQPRP
shrunken log2 fold change: 0.112

RRIRHRPPRLPRPRPRPLRDPRP
shrunken log2 fold change: 0.271

RRIRHRPPRLPRPRPRPLRHPRP
shrunken log2 fold change: -0.132

RRIRHRPPRLPRPRPRPLRTPRP
shrunken log2 fold change: 1.02

RRIRHRPPRLPRPRPRPLSQPRP
shrunken log2 fold change: -0.0443

RRIRHRPPRLPRPRPRPLSYPRP
shrunken log2 fold change: -0.895

RRIRHRPPRLPRPRPRPLTQPRP
shrunken log2 fold change: -0.417

RRIRHRPPRLPRPRPRPLTWPRP
shrunken log2 fold change: -0.135

RRIRHRPPRLPRPRPRPLVAPRP
shrunken log2 fold change: -0.103

RRIRHRPPRLPRPRPRPLWHPRP
shrunken log2 fold change: -0.138

RRIRHRPPRLPRPRPRPLYHPRP
shrunken log2 fold change: -0.198

RRIRHRPPRLPRPRPRPLYSPRP
shrunken log2 fold change: -0.792

RRIRHRPPRLPRPRPRPMADPRP
shrunken log2 fold change: 0.0417

RRIRHRPPRLPRPRPRPMCCPRP
shrunken log2 fold change: 0.101

RRIRHRPPRLPRPRPRPMCDPRP
shrunken log2 fold change: -0.0945

RRIRHRPPRLPRPRPRPMEDPRP
shrunken log2 fold change: 0.0325

RRIRHRPPRLPRPRPRPMHAPRP
shrunken log2 fold change: -9.3e-05

RRIRHRPPRLPRPRPRPMLPPRP
shrunken log2 fold change: -0.0141

RRIRHRPPRLPRPRPRPMPEPRP
shrunken log2 fold change: 0.283

RRIRHRPPRLPRPRPRPMREPRP
shrunken log2 fold change: 0.237

RRIRHRPPRLPRPRPRPMRHPRP
shrunken log2 fold change: -0.0546

RRIRHRPPRLPRPRPRPMRVPRP
shrunken log2 fold change: -0.0146

RRIRHRPPRLPRPRPRPMTEPRP
shrunken log2 fold change: 0.0178

RRIRHRPPRLPRPRPRPMTWPRP
shrunken log2 fold change: 0.148

RRIRHRPPRLPRPRPRPMWMPRP
shrunken log2 fold change: -0.000946

RRIRHRPPRLPRPRPRPMWNPRP
shrunken log2 fold change: -0.0721

RRIRHRPPRLPRPRPRPMWRPRP
shrunken log2 fold change: 0.136

RRIRHRPPRLPRPRPRPMWWPRP
shrunken log2 fold change: 0.177

RRIRHRPPRLPRPRPRPMYKPRP
shrunken log2 fold change: -0.138

RRIRHRPPRLPRPRPRPNANPRP
shrunken log2 fold change: -0.801
